{
  "source": "patent US8507655",
  "binders": {"B1": {"name": "5.20 (antibody, V domains shown)", "VH": "GPGLLKPSETLSLTCAVSGDSISGGYYWSWIRQSPGKGLEWIGHIYGSTADTRYNPSLKSRVTISKDTRKNQLSLQLRSVTAADTAVYYCARSGYNFWSGEYYGLDSWGQGAVVTVSS", "VL": "TQSPSSLSAYVGDKVTITCHASQGINSWLAWYQQKPGKAPKLLIYKASSLQSGVPSRFSGSGSGTDYTLTISSLQSEDFASYYCLQYDSAPLAFGPGTKLDIK"}, "B2": {"name": "5.15 (antibody, V domains shown)", "VH": "B1 VH with R69S, S117A", "VL": "B1 VL"}, "B3": {"name": "J24-15 (antibody, V domains shown)", "VH": "QVQLQESGPGLLKPSETLSLTCAVSGDSISGGYYWSWIRQSPGKGLEWIGHIYGSTADTRYNPSLKSRVTISKDTSKNQLSLQLRSVTAADTAVYYCARSGYNFWSGEYYGLDLWGQGAVVTVSS", "VL": "AIQLTQSPSSLSAYVGDKVTITCHASQGINSWLAWYQQKPGKAPKLLIYKARSLQSGVPSRFSGSGSGTDYTLTISSLQSEDFASYYCLQYDSAPLAFGPGTKLDIK"}, "B4": {"name": "v2 (antibody, V domains shown)", "VH": "B3 VH with G31S, R60K, K66R, L114S", "VL": "B3 VL with R52S"}, "B5": {"name": "J24-7 (antibody, V domains shown)", "VH": "B3 VH with L114S", "VL": "B3 VL with H24R, R52S, S56E"}, "B6": {"name": "35PA83 Fab (parent) (antibody, V domains shown)", "VH": "B1 VH with R69S", "VL": "B1 VL"}},
  "note": "Changes are numbered by the printed parent chain.",
  "data": [
    {"target": "PA83 protective antigen (Bacillus anthracis, UniProt P13423)", "experiment": "SPR", "units": {"Kd": "nM"}, "values": [
      {"binder": "B1", "Kd": 12.2},
      {"binder": "B2", "Kd": 3.5}
    ]},
    {"target": "PA83 protective antigen (Bacillus anthracis, UniProt P13423)", "experiment": "SPR", "remark": "another data set of the same source", "units": {"Kd": "nM"}, "values": [
      {"binder": "B3", "Kd": 0.88},
      {"binder": "B4", "Kd": 0.66},
      {"binder": "B5", "Kd": 0.78},
      {"binder": "B6", "Kd": 3.4}
    ]}
  ]
}
